Data set [1] addresses T1, angiopoietin-2 (Ang2) (UniProt O15123 O15123:19-496).
The target in data set [2] is T2, coagulation factor IX (FIX) (UniProt P00740 P00740:47-461). Nature of the data set: ±0.7.
The target in data set [3] is T3, coagulation factor IXa (FIXa) (UniProt P00740;P00740 P00740:47-191,P00740:227-461). Nature of the data set: filter; ±0.2; 500-700 pM in Table 1.
The target of data set [4] is T4, thrombin (F2) (human, UniProt P00734;P00734 P00734:328-363,P00734:364-622). Nature of the data set: filter; ±0.7.
Data set [5] addresses T4, thrombin (F2).
The target of data set [6] is T3, coagulation factor IXa (FIXa). Nature of the data set: ±0.05; p287 gives about 1 to 3 nM. Particulars: stem-loop.
Data set [7] has as its target T2, coagulation factor IX (FIX). Briefly: ±0.8; p287 gives about 6 to 10 nM. The conditions noted are these: stem-loop.
The target in data set [8] is T3, coagulation factor IXa (FIXa). Nature of the data set: competition; cholesterol has modest effect on affinity.
Data set [9] has as its target T1, angiopoietin-2 (Ang2). Briefly: FIG. 27 gives <10 nM; about 1 nM in competition (FIG. 29).
The target in data set [10] is coagulation factor VIIa (FVIIa) (UniProt P08709;P08709 P08709:61-212,P08709:213-466). Nature of the data set: competition; physiologic conditions.

Where two headings read alike, the source gives them in different places.

These results are taken from US20030175703, “RNA aptamers and methods for identifying the same” (published 2003).

B1: Ang2 aptamer 9-5 (ssRNA)
RNA: GGGAGGACGAUGCGGCGAUCUUUUCGUCAACCGCACGUUGAACUCGGCUCGGCACCAGACGACUCGCUGAGGAUCCGAGA
modifications: 2'-F
B1: the Kd with angiopoietin-2 (Ang2) [1] was around 5 nM.

B2: RNA 9.3 (ssRNA)
RNA: GGGAGAGAGGAAGAGGGAUGGGGACUAUACCGCGUAAUGCUGCCUCCCCAUUCCGGAACGCUCAUAACCCAGAGGUCGAUAGUACUGGAUCCCCCC
modifications: 2'-F pyrimidines
In the case of B2, the figures for the Kd in data set [2] and in [3] were 3.96 nM and 0.65 nM, respectively.

B3: TOG 25 (TOGGLE-25) (ssRNA)
RNA: GGGAGAGAGGAAGAGGGAUGGGGAACAAAGCUGAAGUACUUACCCAAGAUCAUCCCGAACGACAUAACCCAGAGGUCGAUAGUACUGGAUCCCCCC
In the data set with thrombin (F2) [4], B3 registered a Kd of 2.8 nM.

Take GGGAACAAAGCAGAAGUACUUACCC (ssRNA) [TOG 25 short loop U1]: the Kd in the data set with thrombin (F2) [5] was around 250 nM.

Turning to AUGGGGACUAUACCGCGUAAUGCUGCCUCCCCAU (ssRNA) [9.3t], the Kd stood at 0.58 nM in data set [6] and 4.7 nM in data set [7].

As for AUGGGGACUAUACCGCGUAAUGCUGCCUCCCCAU (ssRNA, 5' cholesterol) [9.3t-C], the binding result in [8] is given as “binds”.

B4: Ang2 aptamer 11-3 (ssRNA)
RNA: GGGAGGACGAUGCGGUUAACCAUCAGCUCAUGGCCCCUGCCCUCUCAAGGACCACCAGACGACUCGCUGAGGAUCCGAGA
modifications: 2'-F
In the data set with angiopoietin-2 (Ang2) [1], B4 yielded a Kd of around 10 nM.

B5: ANG11-1 (ssRNA)
RNA: GGGAGGACGAUGCGGACUAGCCUCAUCAGCUCAUGUGCCCCUCCGCCUGGAUCACCAGACGACUCGCUGAGGAUCCGAGA
modifications: 2'-F
In turn, B5 came in with a Kd with angiopoietin-2 (Ang2) [9] of around 5 nM.

B6: 10.15 (ssRNA)
RNA: GGGAGAGAGGAAGAGGGAUGGGAAGCUCCAUCCAAGCGACGACACGCUCGUCCCGAAAAGAAUCAUAACCCAGAGGUCGAU
modifications: 2'-F pyrimidines
For B6, the Kd in data set [10] was around 6.33 nM.

In the data set with thrombin (F2) [5], GGGAACAAAGCUGAAGAACUUACCC (ssRNA) [TOG 25 short loop U2] gave a Kd of around 1 nM.
